Assay results published in patent publication US20090148447A1 (TRUBION PHARMACEUTICALS, published 2009).

How the values were obtained:
[1] = biological target: low-affinity CD16 (CD16lo); test: flow cytometry, CD16lo bound to sample on Ramos cells, goat anti-mouse-PE; sample 0.033 ug/ml
[2] = biological target: low-affinity CD16 (CD16lo); test: flow cytometry, CD16lo bound to sample on Ramos cells, goat anti-mouse-PE; sample 0.1 ug/ml
[3] = biological target: low-affinity CD16 (CD16lo); test: flow cytometry, CD16lo bound to sample on Ramos cells, goat anti-mouse-PE; sample 0.3 ug/ml
[4] = biological target: low-affinity CD16 (CD16lo); test: flow cytometry, CD16lo bound to sample on Ramos cells, goat anti-mouse-PE; sample 2.67 ug/ml
[5] = biological target: low-affinity CD16 (CD16lo); test: flow cytometry, CD16lo bound to sample on Ramos cells, goat anti-mouse-PE; sample 0.011 ug/ml
[6] = biological target: low-affinity CD16 (CD16lo); test: flow cytometry, CD16lo bound to sample on Ramos cells, goat anti-mouse-PE; sample 8 ug/ml
[7] = biological target: low-affinity CD16 (CD16lo); test: flow cytometry, CD16lo bound to sample on Ramos cells, goat anti-mouse-PE; sample 24 ug/ml
[8] = biological target: low-affinity CD16 (CD16lo); test: flow cytometry, CD16lo bound to sample on Ramos cells, goat anti-mouse-PE; sample 0.89 ug/ml
CD20 = biological target: T1, CD20 (UniProt P11836 1-297, limits assumed); test: flow cytometry on Wil2-S B-cells, PE goat anti-human IgG
T1 construct: whole, on cells; also called CD20 on Wil2-S cells
T1 sequence (looked up): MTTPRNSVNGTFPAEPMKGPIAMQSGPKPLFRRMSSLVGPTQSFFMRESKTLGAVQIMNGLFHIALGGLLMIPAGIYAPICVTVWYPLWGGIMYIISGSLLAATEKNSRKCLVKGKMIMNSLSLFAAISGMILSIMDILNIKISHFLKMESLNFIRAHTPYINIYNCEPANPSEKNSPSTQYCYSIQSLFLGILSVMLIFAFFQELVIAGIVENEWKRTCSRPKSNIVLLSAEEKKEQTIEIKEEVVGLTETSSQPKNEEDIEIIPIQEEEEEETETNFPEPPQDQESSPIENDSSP
Method: For the Wil2-S B-cell binding study, 100 ug/ml of PIMS was used. […] Binding was detected using a goat anti-human IgG (gamma specific) conjugated to phycoerythrin (PE) (Jackson Immunoresearch # 109-116-098) at 1:100 dilution in FACS buffer. Results were analyzed by one-color flow cytometry on a FACsCalibur using CellQuest software. In addition to assessing the binding of anti-CD20 PIMS to WIL2-S cells, the binding of anti-CD20 SMIPs to Wil2-S cells expressing CD20 on their surface was also assessed.

Sequence of low-affinity CD16 (CD16lo) (P08637 17-208): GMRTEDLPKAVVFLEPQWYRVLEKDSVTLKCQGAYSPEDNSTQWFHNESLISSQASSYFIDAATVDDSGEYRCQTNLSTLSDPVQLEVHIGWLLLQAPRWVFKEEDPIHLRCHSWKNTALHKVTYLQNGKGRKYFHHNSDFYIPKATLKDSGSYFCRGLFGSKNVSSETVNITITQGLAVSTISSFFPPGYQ

Molecule: TRU-016 (an anti-CD37 SMIP) (Fc fusion)
- Geo MFI [1]: 21.8
- Geo MFI [2]: 57.5
- Geo MFI [3]: 143
- Geo MFI [4]: 229
- Geo MFI [5]: 7.41
- Geo MFI [6]: 228
- Geo MFI [7]: 158
- Geo MFI [8]: 214

B1: 2Lm20-4HL12 (an HL anti-CD20 SMIP with a 12-amino-acid gly4ser linker) (Fc fusion)
chain: QVQLVQSGAESKKPGASVKVSCKASGYTFTSYNMHWVRQAPGQGLEWMGAIYPGNGDTSYNQKFKGRVTMTRDTSTSTVYMELSSLRSEDTAVYYCARSYYSNSYWYFDLWGRGTLVTVSSGGGGSGGGGSASEIVLTQSPATLSLSPGERATLSCRASSSVSYIVWYQQKPGQAPRLLIYAPSNLASGIPARFSGSGSGTDFTLTISSLEPEDFAVYYCQQWSFNPPTFGQGTKVEIK
notes: also called DNE078; not shown: The hinge and CH2CH3 of this SMIP are not specified
- binding result (CD20): binds

B2: 2Lm20-4HL17 (an HL anti-CD20 SMIP with a 17-amino-acid gly4ser linker) (Fc fusion)
chain: QVQLVQSGAESKKPGASVKVSCKASGYTFTSYNMHWVRQAPGQGLEWMGAIYPGNGDTSYNQKFKGRVTMTRDTSTSTVYMELSSLRSEDTAVYYCARSYYSNSYWYFDLWGRGTLVTVSSGGGGSGGGGSGGGGSASEIVLTQSPATLSLSPGERATLSCRASSSVSYIVWYQQKPGQAPRLLIYAPSNLASGIPARFSGSGSGTDFTLTISSLEPEDFAVYYCQQWSFNPPTFGQGTKVEIK
notes: also called DNE079; not shown: The hinge and CH2CH3 of this SMIP are not specified
- binding result (CD20): binds
